Experimental data: the DeepSol protein solubility set

Assay: soluble on expression in E. coli; label from the status in PepcDB or PDB records

Soluble on expression in E. coli, soluble:
MGSSHHHHHHSSGRENLYFQGHMSKPIVMERGVKYRDADKMALIPVKNVATEREALLRKPEWMKIKLPADSTRIQGIKAAMRKNGLHSVCEEASCPNLAECFNHGTATFMILGAICTRRCPFCDVAHGRPVAPDANEPVKLAQTIADMALRYVVITSVDRDDLRDGGAQHFADCITAIREKSPQIKIETLVPDFRGRMDRALDILTATPPDVFNHNLENVPRIYRQVRPGADYNWSLKLLERFKEAHPEIPTKSGLMVGLGETNEEIIEVMRDLRRHGVTMLTLGQYLQPSRHHLPVQRYVSPDEFDEMKAEALAMGFTHAACGPFVRSSYHADLQAKGMEVK
MGSSHHHHHHSSGRENLYFQGMPIITFLPSGKRAEVDEGKTILSAAQEIGEGIRSLCGGKGSCGKCLVVVRKGDVEILSEEAHEKFVREKGYYLACQTAVKGDVEVFIPPESRLERQQILKDFFISSKEFNPVVKVEFCSDAFLPEVLSQKGLRLACSTDVEEGDFGLVVRGKEVIDVLPDEKAFGLAVDVGTTTIVAALVDLKDGKVVNVASDYNGQIIYGEEVLSRVEFARSRKDGVEVLQRAVVESINKLIDKLLEGYATPDRIYDVVAAGNTIMTHFLVGKDVEYLFSSPDVKVEREGFVVNASEIGLKVNSNAELFCLPPVGRFVGGDIVGDILASRIVDSATISLMVDLGTNGEIVVGSEGWAMATSVASGPAFEGYEIKHGSRAVEGAIDHVEIEGEEVRYTVIGNGKPRSICGSGLIDLMAEMFKNGILDATGAMNKKHPRVRRGEDGYEFVVVEAEKSATAKDIVFTEKDVETLLKSKAAVCAGIAVLIKKAGLGLEDIDEFYIAGAFGYYINFDNAVTIGLFPELKAEVKQIGNGSLAGAYLALVSERKRKLAETIANAFAYFDLSTDADFVEEYRAALSLPGRPELFPETYAKYV
MGSSHHHHHHSSGRENLYFQGMTTAKRDTYTPETLLSVAVQVFIERGYDGTSMEHLSKAAGISKSSIYHHVTGKEELLRRAVSRALDELFGILDEEHARVGTAAERLEYVVRRMVEVLMAELPYVTLLLRVRGNTGTERWALERRREFDHRVAALLKDAAAEGDVRADVEVRLATRLVFGMINSIVEWYRPEGPDGRSDASGASGVSGAGEREVVDAVARLVFGGLRKAS
MGSSHHHHHHSSGRENLYFQGMVSVTFEPVGKKVEDEPDTILEIARRNGVLIRSDCGGKGVCGKCKVVVVDYRGSLSDITDHERKHLIEEEISKGYRLACQARVEEGRATIFIPPESRLERRKVAGLTIEKEVELNPAVRKVYAEIQPPSIEDQLPDYDRLTRALGDFSLDLETLSEMPKLLREAEWRVTATFWNGRLIDLEKGDVSDRCYGVAVDVGSSKIICHLVDLKSGETIATGYSDNPQVAYGEDIVSRITYASKSAENRKRLQTVVVETVNQIIAELCNESGVDLRHVYEVMIVGNSVMHHLFFGIEPRFIGVSPFTPAVRRGVSFPAEDVGLRINRKGYVSSLPLVAGFVGADAVANIAITGIHKAEEISMVIDIGTNTEIVIGNREKLGVCSAPSGPAFEGAHITFGMKAISGAIDSVRIERDEVIYTTIDNAKAKGLCGTGLIDLIAELYRNGIINRNGKFVKDHSRIIVDGVPKFVVAKAEETEFGKPITVSEKDINELLMAKGAIKSGWMILSERLGIEPDKIERIYLAGSFGRHINVENAKVIGLLPDIPSEKITFAGDTAVGGAKMALKSVRVRDEMEDVVSRLNYVELSVEKNFYSVFVRAIPI
MGSSHHHHHHSSGRENLYFQGPSNSDAAHAFWSTQPVPQTEDEDEKIVFAGPMDEPKTVADIPEEPYPIASTFEWWTPNMEAADDIHAIYELLRDNYVEDDDSMFRFNYSEEFLQWALCPPNYIPDWHVAVRRKADKKLLAFIAGVPVTLRMGTPKYMKVKAQEKGEGEEAAKYDEPRHICEINFLCVHKQLREKRLAPILIKEATRRVNRTNVWQAVYTAGVLLPTPYASGQYFHRSLNPEKLVEIRFSGIPAQYQKFQNPMAMLKRNYQLPSAPKNSGLREMKPSDVPQVRRILMNYLDSFDVGPVFSDAEISHYLLPRDGVVFTYVVENDKKVTDFFSFYRIPSTVIGNSNYNLLNAAYVHYYAATSIPLHQLILDLLIVAHSRGFDVCNMVEILDNRSFVEQLKFGAGDGHLRYYFYNWAYPKIKPSQVALVML
MGTASYPDPEIRALAEKITANATSDLEKVKAIESYLKNNYINTYVERTDVKEFLFKTKRGTAREFATAFVLLAQSIGIPARAVFGYLADPVETNQTIFASDAYVWAEVRFKEGWMEFDPAPEGRG
